Measurements from the supplement of paper PMC9112550, “Optimization of the antimicrobial peptide Bac7 by deep mutational scanning” (BMC Biology, 2022).

Each sequence was assayed on Escherichia coli TOP10 (assay: shrunken log2 fold change of peptide-encoding DNA abundance (4.5 h post-induction vs induction); higher = less antimicrobial activity (less host growth inhibition)). Conditions: time post-induction: 4.5 h; library: site-saturation at positions 5, 18, 19, 20.
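Note: peptides expressed intracellularly from a pBAD plasmid library in pooled LB shake-flask culture, induced with 0.3% L-arabinose, DNA abundance read by NGS, three biological replicates, DESeq2 with apeglm shrinkage.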

Sequence | shrunken log2 fold change
RRIRTRPPRLPRPRPRPPYKPRP | -0.294
RRIRPRPPRLPRPRPRPGFRPRP | 0.138
RRIRCRPPRLPRPRPRPSFNPRP | -0.882
RRIRFRPPRLPRPRPRPGSHPRP | -0.225
RRIRIRPPRLPRPRPRPQPMPRP | 0.604
RRIRMRPPRLPRPRPRPTGGPRP | 0.454
RRIRGRPPRLPRPRPRPYWAPRP | 0.211
RRIRDRPPRLPRPRPRPSHVPRP | -0.401
RRIRKRPPRLPRPRPRPIIVPRP | 0.0373
RRIRYRPPRLPRPRPRPASGPRP | -0.148
RRIRMRPPRLPRPRPRPRKTPRP | 0.514
RRIRQRPPRLPRPRPRPMLQPRP | 0.00663
RRIRYRPPRLPRPRPRPRKVPRP | -0.208
RRIRSRPPRLPRPRPRPLDIPRP | 0.00915
RRIRFRPPRLPRPRPRPKQMPRP | 0.382
RRIRERPPRLPRPRPRPSHSPRP | -1.37
RRIRYRPPRLPRPRPRPTYYPRP | -1.21
RRIRLRPPRLPRPRPRPLPEPRP | 0.39
RRIRIRPPRLPRPRPRPCNHPRP | -0.232
RRIRQRPPRLPRPRPRPAVEPRP | 0.149
RRIRWRPPRLPRPRPRPSHTPRP | 0.0847
RRIRTRPPRLPRPRPRPPTWPRP | 0.0779

Sequence | shrunken log2 fold change
RRIRDRPPRLPRPRPRPVKWPRP | 0.00911
RRIRYRPPRLPRPRPRPHQSPRP | 0.0552
RRIRDRPPRLPRPRPRPQAYPRP | 0.18
RRIRRRPPRLPRPRPRPWHPPRP | 0.0925
RRIRQRPPRLPRPRPRPVAGPRP | 0.0467
RRIRRRPPRLPRPRPRPHDFPRP | 0.103
RRIRQRPPRLPRPRPRPIKVPRP | 0.0441
RRIRKRPPRLPRPRPRPEPWPRP | 0.895
RRIRARPPRLPRPRPRPWCCPRP | 0.104
RRIRGRPPRLPRPRPRPFFNPRP | 0.186
RRIRIRPPRLPRPRPRPWNSPRP | -0.592
RRIRHRPPRLPRPRPRPSTTPRP | -0.416
RRIRFRPPRLPRPRPRPNIKPRP | -0.504
RRIRSRPPRLPRPRPRPAKEPRP | 0.0106
RRIRLRPPRLPRPRPRPMFNPRP | -0.524
RRIRSRPPRLPRPRPRPQMLPRP | -0.195
RRIRKRPPRLPRPRPRPWYAPRP | -0.132
RRIRFRPPRLPRPRPRPDTYPRP | -0.221
RRIRMRPPRLPRPRPRPPHEPRP | 0.445
RRIRYRPPRLPRPRPRPADYPRP | 3.66
RRIRNRPPRLPRPRPRPQKAPRP | -0.0017
RRIRCRPPRLPRPRPRPVVNPRP | -0.18

Sequence | shrunken log2 fold change
RRIRNRPPRLPRPRPRPTYCPRP | -0.276
RRIRWRPPRLPRPRPRPVIFPRP | 1.32
RRIRPRPPRLPRPRPRPPTMPRP | 0.223
RRIRWRPPRLPRPRPRPVSWPRP | 0.782
RRIRDRPPRLPRPRPRPQSFPRP | -0.0337
RRIRMRPPRLPRPRPRPMTNPRP | 0.165
RRIRERPPRLPRPRPRPRWHPRP | 0.0135
RRIRVRPPRLPRPRPRPWSYPRP | -0.0283
RRIRCRPPRLPRPRPRPLPVPRP | -0.105
RRIRQRPPRLPRPRPRPRHDPRP | 0.0818
RRIRHRPPRLPRPRPRPHYTPRP | -0.903
RRIRFRPPRLPRPRPRPERNPRP | -0.184
RRIRIRPPRLPRPRPRPAGHPRP | -0.159
RRIRIRPPRLPRPRPRPWHCPRP | -0.0926
RRIRWRPPRLPRPRPRPCKNPRP | -0.0451
RRIRKRPPRLPRPRPRPHEAPRP | -0.022
RRIRYRPPRLPRPRPRPIFKPRP | -0.133
RRIRKRPPRLPRPRPRPEQWPRP | -0.0362
RRIRSRPPRLPRPRPRPKMDPRP | 0.232
RRIRNRPPRLPRPRPRPQGAPRP | -0.149
RRIRYRPPRLPRPRPRPPEEPRP | 0.0153
RRIRCRPPRLPRPRPRPLNSPRP | -0.605

Sequence | shrunken log2 fold change
RRIRCRPPRLPRPRPRPSMYPRP | -0.418
RRIRTRPPRLPRPRPRPCTYPRP | -0.326
RRIRSRPPRLPRPRPRPPGSPRP | 0.134
RRIRQRPPRLPRPRPRPSLFPRP | -0.11
RRIRNRPPRLPRPRPRPYIEPRP | -0.275
RRIRQRPPRLPRPRPRPDSQPRP | 0.0234
RRIRVRPPRLPRPRPRPKAIPRP | -0.0609
RRIRNRPPRLPRPRPRPGAKPRP | 0.362
RRIRPRPPRLPRPRPRPHNYPRP | -0.631
RRIRKRPPRLPRPRPRPASKPRP | -0.25
RRIRQRPPRLPRPRPRPLVGPRP | 0.38
RRIRCRPPRLPRPRPRPWYEPRP | -0.135
RRIRGRPPRLPRPRPRPLIAPRP | 1.27
RRIRCRPPRLPRPRPRPKTCPRP | -0.211
RRIRLRPPRLPRPRPRPHCGPRP | -0.22
RRIRPRPPRLPRPRPRPDFAPRP | 0.0996
RRIRTRPPRLPRPRPRPCRKPRP | -0.0644
RRIRSRPPRLPRPRPRPEQAPRP | 0.289
RRIRWRPPRLPRPRPRPISKPRP | -0.215
RRIRERPPRLPRPRPRPPSTPRP | -0.136
RRIRCRPPRLPRPRPRPAWWPRP | 0.902
RRIRRRPPRLPRPRPRPVFIPRP | -0.0708

Sequence | shrunken log2 fold change
RRIRCRPPRLPRPRPRPLDVPRP | -0.41
RRIRQRPPRLPRPRPRPSYNPRP | -0.723
RRIRMRPPRLPRPRPRPEKGPRP | -0.0013
RRIRPRPPRLPRPRPRPNHRPRP | -0.11
RRIRNRPPRLPRPRPRPPWGPRP | 0.254
RRIRARPPRLPRPRPRPAMWPRP | 0.317
RRIRCRPPRLPRPRPRPRCNPRP | 0.00442
RRIRFRPPRLPRPRPRPYVTPRP | -0.148
RRIRQRPPRLPRPRPRPVCWPRP | 0.279
RRIRARPPRLPRPRPRPVKGPRP | -0.00146
RRIRKRPPRLPRPRPRPHVTPRP | -0.0241
RRIRNRPPRLPRPRPRPHYAPRP | -0.0337
RRIRSRPPRLPRPRPRPAPEPRP | 0.479
RRIRYRPPRLPRPRPRPNMMPRP | -0.645
RRIRKRPPRLPRPRPRPDAMPRP | 0.618
RRIRPRPPRLPRPRPRPELAPRP | 0.643
RRIRLRPPRLPRPRPRPMIWPRP | -0.0275
RRIRGRPPRLPRPRPRPTDSPRP | 0.526
RRIRDRPPRLPRPRPRPDAKPRP | 0.162
RRIRTRPPRLPRPRPRPGPDPRP | -0.228
RRIRSRPPRLPRPRPRPRAMPRP | 0.107
